The text below walks through data of publication PMC8303762.

In the assay the target is insulin-like growth factor-1 receptor (IGF-1R) on MCF-7 cells (human (endogenous in MCF-7)) (UniProt P08069).
Sequence of UniProt P08069 (P08069 31-1367): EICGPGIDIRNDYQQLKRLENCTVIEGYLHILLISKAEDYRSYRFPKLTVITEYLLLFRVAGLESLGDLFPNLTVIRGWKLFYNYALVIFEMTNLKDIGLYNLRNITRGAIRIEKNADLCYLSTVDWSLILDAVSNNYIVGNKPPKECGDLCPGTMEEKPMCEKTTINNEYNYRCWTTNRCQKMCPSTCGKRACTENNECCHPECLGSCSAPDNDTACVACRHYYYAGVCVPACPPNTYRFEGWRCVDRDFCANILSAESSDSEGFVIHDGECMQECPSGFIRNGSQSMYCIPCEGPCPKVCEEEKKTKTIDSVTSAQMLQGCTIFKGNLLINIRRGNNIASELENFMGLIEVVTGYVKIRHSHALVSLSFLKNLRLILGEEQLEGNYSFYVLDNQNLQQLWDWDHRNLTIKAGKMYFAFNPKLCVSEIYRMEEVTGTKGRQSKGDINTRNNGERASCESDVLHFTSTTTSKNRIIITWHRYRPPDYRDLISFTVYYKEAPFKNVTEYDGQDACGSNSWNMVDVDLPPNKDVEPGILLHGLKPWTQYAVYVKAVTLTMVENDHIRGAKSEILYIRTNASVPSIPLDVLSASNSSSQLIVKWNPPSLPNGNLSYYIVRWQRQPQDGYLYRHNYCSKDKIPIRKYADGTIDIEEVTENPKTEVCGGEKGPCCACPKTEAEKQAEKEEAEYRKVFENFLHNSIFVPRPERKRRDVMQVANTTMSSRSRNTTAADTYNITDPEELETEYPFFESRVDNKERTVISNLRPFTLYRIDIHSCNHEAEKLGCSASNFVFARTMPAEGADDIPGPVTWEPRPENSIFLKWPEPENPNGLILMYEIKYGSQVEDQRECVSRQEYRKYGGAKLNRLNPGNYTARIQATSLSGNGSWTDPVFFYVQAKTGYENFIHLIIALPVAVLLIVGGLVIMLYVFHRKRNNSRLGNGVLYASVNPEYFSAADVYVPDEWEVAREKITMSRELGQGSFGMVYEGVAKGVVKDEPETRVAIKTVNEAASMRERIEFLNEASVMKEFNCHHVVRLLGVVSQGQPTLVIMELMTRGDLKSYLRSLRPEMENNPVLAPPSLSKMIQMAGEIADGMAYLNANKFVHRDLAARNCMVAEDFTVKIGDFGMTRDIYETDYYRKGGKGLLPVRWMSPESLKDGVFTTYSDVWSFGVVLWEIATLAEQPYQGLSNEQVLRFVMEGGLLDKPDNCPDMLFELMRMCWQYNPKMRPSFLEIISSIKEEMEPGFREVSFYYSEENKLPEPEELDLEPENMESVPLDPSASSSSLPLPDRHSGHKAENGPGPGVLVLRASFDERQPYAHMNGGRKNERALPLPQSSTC

Sequence of recombinant human vimentin (P08670 whole entry): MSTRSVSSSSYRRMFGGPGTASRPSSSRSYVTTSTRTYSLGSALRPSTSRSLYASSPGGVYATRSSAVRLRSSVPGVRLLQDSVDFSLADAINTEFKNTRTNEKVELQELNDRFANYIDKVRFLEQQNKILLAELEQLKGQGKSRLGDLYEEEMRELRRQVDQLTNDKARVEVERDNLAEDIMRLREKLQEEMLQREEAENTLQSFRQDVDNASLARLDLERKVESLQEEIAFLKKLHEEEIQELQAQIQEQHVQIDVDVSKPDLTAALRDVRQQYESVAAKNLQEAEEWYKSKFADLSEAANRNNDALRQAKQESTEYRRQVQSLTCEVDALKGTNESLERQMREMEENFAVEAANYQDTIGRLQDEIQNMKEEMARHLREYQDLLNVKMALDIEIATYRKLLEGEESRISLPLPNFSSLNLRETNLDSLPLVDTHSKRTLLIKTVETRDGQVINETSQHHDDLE

Take “recombinant human vimentin (from UniProt P08670 1-466) (natural protein)”: the MTT proliferation of MCF-7 cells treated with recombinant human vimentin (0, 50, 100, 200 ng/mL), 72 h; value printed for 100 ng/mL was over 20%.
